± gives the half width of the 95% confidence interval.
Assays:
[1] = folding stability dG unfold (combined trypsin and chymotrypsin); higher = more stable
Summary of the method: (§1)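 K50 was inferred by Bayesian fitting of sequencing counts obtained after protease digestion of designed mini-proteins. Unfolding free energy was derived by comparison with a sequence-predicted unfolded-state K50 and a shared folded-state K50, for each protease or both combined. The mini-proteins were under 80 residues, had no cysteine, were carried in a PA-tagged cDNA display construct, and were kept only if AlphaFold2 dimer inter-PAE exceeded 15.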

[2] = folding stability dG unfold from trypsin proteolysis; higher = more stable
Summary of the method: as §1

[3] = folding stability dG unfold from chymotrypsin proteolysis; higher = more stable
Summary of the method: as §1

Sequence: SAGGSAGGSKELLKNLPPGAKITVEKKEDGTVRITITNKDGSEKEIEIKVNGKIIKLTIKKKPSAGGSAGGS [r20_50_TrROS_Hall]
- folding stability dG unfold [1]: 1.04 ± 0.32 kcal/mol
- folding stability dG unfold [2]: 2.04 ± 0.098 kcal/mol
- folding stability dG unfold [3]: 0.245 ± 0.42 kcal/mol

Sequence: SAGGSAGGSKETLTIKIKVEVKDENGEKKEVTVTLTIKAETKEEAEALLKELKEKYPNVKVEPSAGGSAGGS [r12_1043_TrROS_Hall]
- folding stability dG unfold [1]: 2.93 ± 0.23 kcal/mol
- folding stability dG unfold [2]: 2.7 ± 0.38 kcal/mol
- folding stability dG unfold [3]: 2.9 ± 0.11 kcal/mol

Sequence: SAGGSAGGSKGKKITIILPPGMPPDAIKNWLAPLGINITIEPIPVVKPKRDPDDGEETYEPYGSAGGSAGGS [r12_80_TrROS]
- folding stability dG unfold [1]: 0.579 ± 0.2 kcal/mol
- folding stability dG unfold [2]: 0.73 ± 0.1 kcal/mol
- folding stability dG unfold [3]: 0.596 ± 0.24 kcal/mol

Sequence: SAGGSAGGSKITSIEEKDGFVRITIEVDGKTETKTIPKENLPPNITFPPGAKVKIEKVSKEDLSAGGSAGGS [r12_1005_TrROS_Hall]
- folding stability dG unfold [1]: 1.32 ± 0.073 kcal/mol
- folding stability dG unfold [2]: 0.449 ± 0.04 kcal/mol
- folding stability dG unfold [3]: 1.74 ± 0.043 kcal/mol

Sequence: SAGGSAGGSKITSIQPHDGFWRIEIKPDGKPQERWINMDELPPNIKIPPGYKVKIEPFSPGDMSAGGSAGGS [r12_1005_TrROS]
- folding stability dG unfold [1]: -0.26 ± 0.26 kcal/mol
- folding stability dG unfold [2]: -0.0148 ± 0.14 kcal/mol
- folding stability dG unfold [3]: -0.769 ± 0.92 kcal/mol

Sequence: SAGGSAGGSKKAEELAKKLGLEVEIVKVEKKKDGSEVVIVKIKNKDGSELTLVVKDGKVELFPSAGGSAGGS [r12_279_TrROS_Hall]
- folding stability dG unfold [1]: 2.24 ± 0.079 kcal/mol
- folding stability dG unfold [2]: 1.79 ± 0.081 kcal/mol
- folding stability dG unfold [3]: 2.44 ± 0.073 kcal/mol

Sequence: SAGGSAGGSKKALVVFYNPETGEVEVLEVEGDADLLKELFEPGTVVEIRVGDEVITIYPEDLKSAGGSAGGS [r20_36_TrMRF]
- folding stability dG unfold [1]: 2.11 ± 0.058 kcal/mol
- folding stability dG unfold [2]: 1.51 ± 0.085 kcal/mol
- folding stability dG unfold [3]: 2.41 ± 0.054 kcal/mol

Sequence: SAGGSAGGSKKIKIKVKVKNPKTKKYYEIEIEISEEELKEGKLTKEQIKKELEKLGYEVEIVPSAGGSAGGS [r20_221_TrROS_Hall]
- folding stability dG unfold [1]: 2.9 ± 0.095 kcal/mol
- folding stability dG unfold [2]: 3.26 ± 0.15 kcal/mol
- folding stability dG unfold [3]: 2.6 ± 0.07 kcal/mol

Sequence: SAGGSAGGSKKKITRIVITDFDPETGKVTVRIRNENGEEETIEVETLEELKELFPDVEVEVIPSAGGSAGGS [r12_403_TrROS_Hall]
- folding stability dG unfold [1]: 2.24 ± 0.059 kcal/mol
- folding stability dG unfold [2]: 2.45 ± 0.049 kcal/mol
- folding stability dG unfold [3]: 2.09 ± 0.044 kcal/mol

Sequence: SAGGSAGGSKKKKIEIIIVMSKEEAEKIAEELKKKYNIKEIKIKVIPLKKNSPKVKELLKKLKSAGGSAGGS [r12_649_TrROS_Hall]
- folding stability dG unfold [1]: 1.62 ± 0.37 kcal/mol
- folding stability dG unfold [2]: 1.03 ± 0.071 kcal/mol
- folding stability dG unfold [3]: 1.92 ± 0.12 kcal/mol

Sequence: SAGGSAGGSKKKKKKVKKKKVYRVKIKTKDGKLIEIEVSVEDLEKIKKAAEKAGFEIVEIEPVSAGGSAGGS [r12_891_TrROS_Hall]
- folding stability dG unfold [1]: 3.42 ± 0.2 kcal/mol
- folding stability dG unfold [2]: 2.39 ± 0.076 kcal/mol
- folding stability dG unfold [3]: 3.86 ± 0.18 kcal/mol

Sequence: SAGGSAGGSKKKKKVKYKIKVINPEKPEVKEIEIEAENEEEAKKLAEELAKKYPGVKVEIEKTSAGGSAGGS [r12_601_TrROS_Hall]
- folding stability dG unfold [1]: 2.48 ± 0.095 kcal/mol
- folding stability dG unfold [2]: 1.08 ± 0.07 kcal/mol
- folding stability dG unfold [3]: 2.95 ± 0.064 kcal/mol

Sequence: SAGGSAGGSKKKPYIIKIYYKDPKTKKKSKKEILVSGKVKNPEKFAKEAAKKLGPVGKVEFKPSAGGSAGGS [r12_942_TrMRF]
- folding stability dG unfold [1]: 0.537 ± 0.098 kcal/mol
- folding stability dG unfold [2]: -0.0324 ± 0.084 kcal/mol
- folding stability dG unfold [3]: 0.757 ± 0.15 kcal/mol

Sequence: SAGGSAGGSKKKVKVEIVEYDPETKKVTVRVTVDGKEYEFTFSTPEELEAAAKAGKIDEITLTSAGGSAGGS [r12_421_TrROS_Hall]
- folding stability dG unfold [1]: 2.26 ± 0.066 kcal/mol
- folding stability dG unfold [2]: 2.26 ± 0.059 kcal/mol
- folding stability dG unfold [3]: 2.29 ± 0.043 kcal/mol

Sequence: SAGGSAGGSKKPKAKIKKIEFFPEGNKIVALVEFPDKVIKEIVFENLPPEEAIKKALEFAKKGSAGGSAGGS [r20_181_TrMRF]
- folding stability dG unfold [1]: 1.31 ± 0.12 kcal/mol
- folding stability dG unfold [2]: 1.08 ± 0.036 kcal/mol
- folding stability dG unfold [3]: 1.42 ± 0.039 kcal/mol

Sequence: SAGGSAGGSKKTVLVRITVTLPNGEKREIELEVEVDSVEDLKELLKKLPLPPGMKVTIEVVPASAGGSAGGS [r20_162_TrROS_Hall]
- folding stability dG unfold [1]: 4.16 ± 0.31 kcal/mol
- folding stability dG unfold [2]: 4.48 ± 0.31 kcal/mol
- folding stability dG unfold [3]: 3.4 ± 0.2 kcal/mol

Sequence: SAGGSAGGSKKVEIKVKVKITNENGETLEVTATIVFDEKTGELYIYDEKTGKVYKISLDDIEPSAGGSAGGS [r12_772_TrROS_Hall]
- folding stability dG unfold [1]: 3.53 ± 0.09 kcal/mol
- folding stability dG unfold [2]: 2.03 ± 0.082 kcal/mol
- folding stability dG unfold [3]: 3.94 ± 0.077 kcal/mol

Sequence: SAGGSAGGSKLRLVLKFKTPEEAEEAARKLAEELKKKEGVKEVKVSVVKVNGEYYVVVEVEKESAGGSAGGS [r12_7_TrROS_Hall]
- folding stability dG unfold [1]: 3.72 ± 0.25 kcal/mol
- folding stability dG unfold [2]: 2.53 ± 0.27 kcal/mol
- folding stability dG unfold [3]: 4.15 ± 0.11 kcal/mol

Sequence: SAGGSAGGSKMLLVKVYIEETKEEIVIEVPEGMTLEEIAERLRELGYKIKKIEVYELPPPPEESAGGSAGGS [r12_955_TrROS_Hall]
- folding stability dG unfold [1]: 4.11 ± 0.3 kcal/mol
- folding stability dG unfold [2]: 3.82 ± 0.18 kcal/mol
- folding stability dG unfold [3]: 4.25 ± 0.078 kcal/mol

Sequence: SAGGSAGGSKMVLKVTLENGKTIEIEAGETIEEIKAKIEEEFGKPVKIKVEKVSAEELGLKPESAGGSAGGS [r12_379_TrROS_Hall]
- folding stability dG unfold [1]: 1.33 ± 0.17 kcal/mol
- folding stability dG unfold [2]: 0.304 ± 0.13 kcal/mol
- folding stability dG unfold [3]: 1.59 ± 0.055 kcal/mol

Sequence: SAGGSAGGSKNVKTVTIPFNNMSPSKFIEQIKNHPVDAIEIEMPDPWYRRFLNWLKDEGIKVISAGGSAGGS [r12_610_TrROS]
- folding stability dG unfold [1]: 1.49 ± 0.12 kcal/mol
- folding stability dG unfold [2]: 1.27 ± 0.053 kcal/mol
- folding stability dG unfold [3]: 1.49 ± 0.18 kcal/mol

Sequence: SAGGSAGGSKPDTIKITFPDGFEIEINGPGMIMIRFPEQGYIFRIPIDPDKNEIKIEIVEPLPSAGGSAGGS [r12_539_TrROS]
- folding stability dG unfold [1]: 3.05 ± 0.13 kcal/mol
- folding stability dG unfold [2]: 2.43 ± 0.11 kcal/mol
- folding stability dG unfold [3]: 3.39 ± 0.045 kcal/mol

Sequence: SAGGSAGGSKPELVIPITFPVLVKNPLDGKIYPVKVEIHIFYYPDKPIIEITLINPDGKPFPFSAGGSAGGS [r12_283_TrMRF]
- folding stability dG unfold [1]: 1.93 ± 0.066 kcal/mol
- folding stability dG unfold [2]: 2.13 ± 0.064 kcal/mol
- folding stability dG unfold [3]: 1.67 ± 0.038 kcal/mol

Sequence: SAGGSAGGSKPGEVYEVKVKIKDKETGKYYEVKVKVYRLEDGTLLIEVDGKIFEVPVKDIEIESAGGSAGGS [r12_790_TrROS_Hall]
- folding stability dG unfold [1]: 3.99 ± 0.11 kcal/mol
- folding stability dG unfold [2]: 3.25 ± 0.2 kcal/mol
- folding stability dG unfold [3]: 4.2 ± 0.082 kcal/mol

Sequence: SAGGSAGGSKPIPYRVKIPSPNGKTHKFDVQIQVRPDGMIDIHVPSGKTIHIPANYPVEIEPWSAGGSAGGS [r20_227_TrROS]
- folding stability dG unfold [1]: 0.056 ± 0.21 kcal/mol
- folding stability dG unfold [2]: 0.132 ± 0.13 kcal/mol
- folding stability dG unfold [3]: -0.208 ± 0.52 kcal/mol

Sequence: SAGGSAGGSKPTLTLEIVLPPEMTLEQLEELARALAEELGLDEVEVRVERRPDGYLRITITVKSAGGSAGGS [r20_208_TrROS_Hall]
- folding stability dG unfold [1]: 3.59 ± 0.12 kcal/mol
- folding stability dG unfold [2]: 3.63 ± 0.18 kcal/mol
- folding stability dG unfold [3]: 3.45 ± 0.091 kcal/mol

Sequence: SAGGSAGGSKTITLSAEELEKMSPEERKKLAELAEKLGAKIEVKDGKVTITIEGLTPEELKALSAGGSAGGS [r12_945_TrROS_Hall]
- folding stability dG unfold [1]: 3.06 ± 0.25 kcal/mol
- folding stability dG unfold [2]: 3.84 ± 0.25 kcal/mol
- folding stability dG unfold [3]: 2.33 ± 0.12 kcal/mol

Sequence: SAGGSAGGSKTITVRVKITLPNGETIEVEAEITVRPDGSITITLPDGSTITLPPGAKVEIEPVSAGGSAGGS [r20_227_TrROS_Hall]
- folding stability dG unfold [1]: 2.85 ± 0.26 kcal/mol
- folding stability dG unfold [2]: 2.99 ± 0.12 kcal/mol
- folding stability dG unfold [3]: 2.51 ± 0.17 kcal/mol

Sequence: SAGGSAGGSKTIVITIEPNVKTPEQLLELLKKIRELSKPGEKIVIIASPEVLEALKKAGLIEESAGGSAGGS [r12_992_TrROS_Hall]
- folding stability dG unfold [1]: 3.49 ± 0.097 kcal/mol
- folding stability dG unfold [2]: 3.2 ± 0.16 kcal/mol
- folding stability dG unfold [3]: 3.7 ± 0.086 kcal/mol

Sequence: SAGGSAGGSKTIVLPKNMSIEQAREEILAKARELLPPGEKLKVTIEVVETPEGTYLKITIEKESAGGSAGGS [r12_1051_TrROS_Hall]
- folding stability dG unfold [1]: 3.22 ± 0.058 kcal/mol
- folding stability dG unfold [2]: 2.49 ± 0.06 kcal/mol
- folding stability dG unfold [3]: 3.51 ± 0.086 kcal/mol

Sequence: SAGGSAGGSKTKTIEIEVDGKKVRITVNEDGSVTIEVYYPGKPVKTIEIPGMSIEEILKALLESAGGSAGGS [r20_8_TrROS_Hall]
- folding stability dG unfold [1]: 2.73 ± 0.098 kcal/mol
- folding stability dG unfold [2]: 3.08 ± 0.071 kcal/mol
- folding stability dG unfold [3]: 2.27 ± 0.071 kcal/mol

Sequence: SAGGSAGGSKTPVFYIPPSLKDPEKAIELLEEIRKKIPPGTKIAVIAPGGGIPELKKAGLITASAGGSAGGS [r12_992_TrMRF]
- folding stability dG unfold [1]: 0.472 ± 0.11 kcal/mol
- folding stability dG unfold [2]: 0.344 ± 0.048 kcal/mol
- folding stability dG unfold [3]: 0.518 ± 0.03 kcal/mol

Sequence: SAGGSAGGSKTVEITITRKDGKKLKIEFYPDGYIKIYDSNGKLVKTIKVDPNASIEEILKALKSAGGSAGGS [r12_990_TrROS_Hall]
- folding stability dG unfold [1]: 3.39 ± 0.083 kcal/mol
- folding stability dG unfold [2]: 3.31 ± 0.12 kcal/mol
- folding stability dG unfold [3]: 3.38 ± 0.038 kcal/mol

Sequence: SAGGSAGGSKTVVITLPENEELGLEKLEELIEKVGPDAKIIISRWDPETGKVDYLVIETGEGKSAGGSAGGS [r12_913_TrMRF]
- folding stability dG unfold [1]: 1.69 ± 0.14 kcal/mol
- folding stability dG unfold [2]: 1.02 ± 0.041 kcal/mol
- folding stability dG unfold [3]: 1.92 ± 0.21 kcal/mol

Sequence: SAGGSAGGSKVEVKEFEFKANGSKALIEKLEDGSVKIIVLGEEPKEYEISPEEPIVILPGFEVSAGGSAGGS [r12_1003_TrMRF]
- folding stability dG unfold [1]: -0.172 ± 0.09 kcal/mol
- folding stability dG unfold [2]: -0.341 ± 0.068 kcal/mol
- folding stability dG unfold [3]: -0.172 ± 0.1 kcal/mol
